Test results from patent US20200308244A1 (ORIONIS BIOSCIENCES, published 2020).
Like-named read-outs stand apart in the source and are kept apart here.

Columns and labels:
Assay in all cases: cell-based or functional assay
[1] = target: T1, type I interferon-α/β receptor (IFNAR), composed of the IFNAR1 and IFNAR2 subunits (human) (UniProt P17181)
T1 sequence (looked up) 1: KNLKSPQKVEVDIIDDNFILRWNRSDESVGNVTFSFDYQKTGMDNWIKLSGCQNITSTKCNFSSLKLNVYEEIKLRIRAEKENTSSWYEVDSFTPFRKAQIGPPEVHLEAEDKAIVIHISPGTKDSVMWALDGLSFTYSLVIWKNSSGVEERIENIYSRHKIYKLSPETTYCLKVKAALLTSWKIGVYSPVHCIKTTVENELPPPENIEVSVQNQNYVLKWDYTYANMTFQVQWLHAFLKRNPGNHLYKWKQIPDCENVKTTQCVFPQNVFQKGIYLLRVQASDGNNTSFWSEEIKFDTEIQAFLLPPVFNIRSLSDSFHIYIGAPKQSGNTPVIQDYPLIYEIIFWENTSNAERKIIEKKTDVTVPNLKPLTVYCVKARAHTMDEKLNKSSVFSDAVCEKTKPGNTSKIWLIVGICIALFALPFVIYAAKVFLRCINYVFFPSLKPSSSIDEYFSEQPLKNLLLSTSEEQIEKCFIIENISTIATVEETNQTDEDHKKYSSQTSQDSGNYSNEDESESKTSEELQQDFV
T1 sequence (looked up) 2: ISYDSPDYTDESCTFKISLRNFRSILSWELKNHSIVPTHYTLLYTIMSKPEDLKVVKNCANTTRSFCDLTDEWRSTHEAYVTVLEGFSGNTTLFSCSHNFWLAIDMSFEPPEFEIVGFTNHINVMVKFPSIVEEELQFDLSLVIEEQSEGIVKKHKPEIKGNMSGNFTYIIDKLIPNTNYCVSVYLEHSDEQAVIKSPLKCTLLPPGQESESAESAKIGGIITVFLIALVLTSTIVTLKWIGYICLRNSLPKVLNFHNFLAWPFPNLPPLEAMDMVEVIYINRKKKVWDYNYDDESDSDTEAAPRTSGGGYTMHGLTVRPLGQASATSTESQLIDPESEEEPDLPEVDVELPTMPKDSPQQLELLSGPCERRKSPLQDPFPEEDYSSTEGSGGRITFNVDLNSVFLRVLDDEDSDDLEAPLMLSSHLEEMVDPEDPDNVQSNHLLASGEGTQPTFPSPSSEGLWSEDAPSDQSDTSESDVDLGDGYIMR

[2] = target: T2, type I interferon-α/β receptor (IFNAR), composed of the IFNAR1 and IFNAR2 subunits (human, UniProt P17181 28-557; P48551 27-515)
T2 sequence (looked up) 1: T1 sequence (looked up) 1
T2 sequence (looked up) 2: T1 sequence (looked up) 2

[3] = target: T1, type I interferon-α/β receptor (IFNAR), composed of the IFNAR1 and IFNAR2 subunits (human); remark: listed apart in the source

wild type IFNα2a (Example 7) (from UniProt P01563 24-188) (ligand)
EC50 6-16 reporter activity, HL116 [1]: 8 pM | EC50 6-16 reporter activity, HL116-CLEC9A [1]: 6 pM

B1: CD20 VHH-(GGS)20-hIFNα1-His6 (other)
chain: QVQLQESGGGLAQAGGSLRLSCAASGRTFSMGWFRQAPGKEREFVAAITYSGGSPYYASSVRGRFTISRDNAKNTVYLQMNSLKPEDTAVYYCAANPTYGSDWNAENWGQGTQVTVSSVDGGSGGSGGSGGSGGSGGSRSGGSGGSGGSGGSGGSGGSGGSGGSGGSGGSGGSGGSGGSAAACDLPETHSLDNRRTLMLLAQMSRISPSSCLMDRHDFGFPQEEFDGNQFQKAPAISVLHELIQQIFNLFTTKDSSAAWDEDLLDKFCTELYQQLNDLEACVMQEERVGETPLMNADSILAVKKYFRRITLYLTEKKYSPCAWEVVRAEIMRSLSLSTNLQERLRRKELEHHHHHH
EC50 6-16 reporter activity, HL116-huCD20 (Exp 1) [2]: 0.0241 ng/mL | EC50 pSTAT1 in PBMC's, CD20 positive (Exp 1) [2]: 0.114 ng/ml | EC50 pSTAT1 in PBMC's, CD20 positive (Exp 2) [2]: 0.085 ng/ml

B2: wild type interferon alpha 1 (IFNα1) (ligand)
chain: CDLPETHSLDNRRTLMLLAQMSRISPSSCLMDRHDFGFPQEEFDGNQFQKAPAISVLHELIQQIFNLFTTKDSSAAWDEDLLDKFCTELYQQLNDLEACVMQEERVGETPLMNADSILAVKKYFRRITLYLTEKKYSPCAWEVVRAEIMRSLSLSTNLQERLRRKE
EC50 6-16 reporter activity, HL116 [3]: 105 pM | EC50 6-16 reporter activity, HL116 (Exp 1) [3]: 2.38 ng/mL | EC50 6-16 reporter activity, HL116-CLEC9A [3]: 84 pM | EC50 6-16 reporter activity, HL116-huCD20 (Exp 1) [3]: 3.25 ng/mL | EC50 of luciferase (6-16 reporter) induction in HL116-CLEC9A cells [3]: 1.6 ng/mL | EC50 of luciferase (6-16 reporter) induction in parental HL116 cells [3]: 2 ng/mL | EC50 pSTAT1 in PBMC's, CD20 negative (Exp 1) [3]: 7.51 ng/ml | EC50 pSTAT1 in PBMC's, CD20 negative (Exp 2) [3]: 6.77 ng/ml | EC50 pSTAT1 in PBMC's, CD20 positive (Exp 1) [3]: 3.97 ng/ml | EC50 pSTAT1 in PBMC's, CD20 positive (Exp 2) [3]: 2.72 ng/ml | fold decrease in potency in 6-16 reporter induction relative to IFNα2 [3]: 10 to 15 fold | ratio CD20 neg/pos of EC50 6-16 reporter activity (Exp 1) [3]: 0.7 | ratio CD20 neg/pos of EC50 pSTAT1 in PBMC's (Exp 1) [3]: 2 | ratio CD20 neg/pos of EC50 pSTAT1 in PBMC's (Exp 2) [3]: 2.5 | ratio of EC50 6-16 reporter activity, HL116 / HL116-CLEC9A [3]: 1.2
